This is an account of results in paper PMC7054389, “Genome-Wide Analysis of the Glucose-6-Phosphate Dehydrogenase Family in Soybean and Functional Identification of GmG6PDH2 Involvement in Salt Stress” (Frontiers in Plant Science, 2020).

Substrate in the series: NC(=O)c1ccc[n+]([C@@H]2O[C@H](COP(=O)(O)OP(=O)(O)OC[C@H]3O[C@@H](n4cnc5c(N)ncnc54)[C@H](OP(=O)(O)O)[C@@H]3O)[C@@H](O)[C@H]2O)c1
Description: NADP+ reduction, Eadie-Hofstee plot, crude E. coli extract. The series is classed as biochemical, Glycine max. Conditions: co-substrate G6P, assay as for plant extracts: 50 mM Hepes-Tris pH 7.8, 3.3 mM MgCl2.

One may read the Km as the concentration of substrate that gives half-maximal velocity.

B1: GmG6PDH2 (Glycine max) (protein)
chain: MGTSEWHIERRSSFGTESPLAREAGNVPETGSLSIVVLGASGDLAKKKTFPALFHLYRQGFLPADEVHIFGYARTKISDDELRNRLRGYLVPNKGASPQLLEDVEKFLQLIKYVSGSYDSEDGFRLLDKEISEHEYLKKSVEGLSRRLFYLALPPSVYPSVCKMIKTCCMNKSDLGGWTRVVVEKPFGKDLESAEELSTEIGKLFEEPQIYRIDHYLGKELVQNLLVLRFANRFFLPLWNRDNIDNVQIVFREDFGTDGRGGYFDQYGIIRDIIQNHLLQVLCLVAMEKPVSLRPEHIRDEKVKVLESVLPIRDDEVVLGQYEGYKDDPTVPDKSNTPTFATVILRIHNERWEGVPFILKAGKALNSRKAEIRVQFKDVPGDIFKCKKQGRNEFVIRLQPLEAMYMKLTVKQPGLEMSTVQSELDLSYGQRYQGVTIPEAYERLILDTIKGDQQHFVRRDELKASWQIFTPLLHRIDEGEFKPLPYKPGSRGPAEADQLLEKAGYVQTHGYIWIPPTL
notes: full-length CDS in pET32a(+), His-tagged, E. coli Rosetta; crude lysate supernatant, not purified
With B1, the Km amounted to 33 µM.
